Reference: PMC2879525

Molecular target: rLdACT (Leishmania actin) (Leishmania donovani, UniProt Q86M27 1-376)
Assay: EMSA

B1: 30 bp DNA probe (dsDNA)
DNA 1: GCGGCCGCATGGCTGACAACGAGCAGAGCT
DNA 2: AGCTCTGCTCGTTGTCAGCCATGCGGCCGC
B1: binds.
